Reference: the supplement of paper PMC7877785
± gives the uncertainty stated by the source.

Test: self-splicing fitness, log relative to wild type (ln ratio); higher = more splicing; Tetrahymena group I intron in knt gene, E. coli kanamycin selection, DiMSum; sequences stand for … in CUCUCU…GGAGGGAAAAGUUAUCAGGCAUGCACCUGGUAGCUAGUCUUUAAACCAAUAGAUUGCAUCGGUUUAAAAGGCAAGACCGUCAAAUUGCGGGAAAGGGGUCAACAGCCGUUCAGUACCAAGUCUCAGGGGAAACUUUGAGAUGGCCUUGCAAAGGGUAUGGUAAUAAGCUGACGGACAUGGUCCUAACCACGCAGCCAAGUCCUAAGUCAACAGAUCUUCUGUUGAUAUGGAUGCAGUUCACAGACUAAAUGUCGGUCGGGGAAGAUGUAUUCUUCUCAUAAGAUAUAGUCGGACCUCUCCUUAAUGGGAGCUAGCGGAUGAAGUGAUGCAACACUGGAGCCGCUGGGAACUAAUUUGUAUGCGAAAGUAUAUUGAUUAGUUUUGGAGUACUCGUGGUCG
Procedure, shortened: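 Colonies from six replicate transformations of E. coli BL21(DE3) were pooled and amplicon-sequenced on an Illumina HiSeq 2500. The library placed an intron with all eight P1ex-region nucleotides randomised inside the knt kanamycin-resistance gene on pET-22b(+), and cells grew overnight at 37°C or 30°C on LB agar with or without 25 μg/mL kanamycin (plus 100 μg/mL carbenicillin, 50 μM IPTG, 0.2% rhamnose). Fitness is the DiMSum error-weighted combination of wild-type-normalised replicate fold changes, kanamycin versus none.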

| Sequence | self-splicing fitness (ln) (30 °C) | self-splicing fitness (ln) (37 °C) |
| --- | --- | --- |
| CGUAAGCAAUAUUACGGUAA | -3.06 ± 0.28 | -1.36 ± 0.17 |
| GGGAAGCAAUAUUACGGCGG | -1.2 ± 0.14 | -1.94 ± 0.24 |
| UCAAAGCAAUAUUACGGCUU | -5.11 ± 0.45 | -2.32 ± 0.2 |
| CAGUAGCAAUAUUACGCGUG | -2.65 ± 0.18 | -1.86 ± 0.14 |
| GGGCAGCAAUAUUACGGUCC | -4.03 ± 0.46 | -2.14 ± 0.28 |
| UAUCAGCAAUAUUACGCGGG | -0.936 ± 0.076 | -1.14 ± 0.098 |
| CAAUAGCAAUAUUACGGAGA | -2.75 ± 0.33 | -2.08 ± 0.43 |
| AGCUAGCAAUAUUACGGGUA | -1.27 ± 0.073 | -0.597 ± 0.082 |
| AGUGAGCAAUAUUACGCAAG | -2.68 ± 0.22 | -2.98 ± 0.26 |
| UACGAGCAAUAUUACGCCCU | -3.96 ± 0.47 | – |
| GCAUAGCAAUAUUACGAGAA | -2.57 ± 0.46 | -2.67 ± 0.41 |
| GUCAAGCAAUAUUACGGCGU | -1.04 ± 0.083 | -0.0377 ± 0.1 |
| UUUUAGCAAUAUUACGAACG | -0.665 ± 0.11 | 0.449 ± 0.18 |
| GAGCAGCAAUAUUACGUGAG | -2.06 ± 0.069 | -0.264 ± 0.07 |
| GAGUAGCAAUAUUACGUGCU | -3.42 ± 0.19 | -2.31 ± 0.2 |
| GGGGAGCAAUAUUACGGGUU | -2.84 ± 0.22 | -2.2 ± 0.39 |
| ACUCAGCAAUAUUACGGCCU | -0.0739 ± 0.079 | -0.0329 ± 0.099 |
| UUGUAGCAAUAUUACGGUGC | -2.37 ± 0.45 | -2.07 ± 0.34 |
| CGAAAGCAAUAUUACGAACU | -1.25 ± 0.091 | 0.0371 ± 0.14 |
| UCUGAGCAAUAUUACGGACG | -1.17 ± 0.35 | -2.21 ± 0.45 |
| GGCUAGCAAUAUUACGUUGG | -2.34 ± 0.16 | -3.24 ± 0.32 |
| CGUGAGCAAUAUUACGACUU | -2.96 ± 0.16 | -1.71 ± 0.19 |
| UCAAAGCAAUAUUACGCCGG | -0.974 ± 0.13 | 0.015 ± 0.15 |
| AUCAAGCAAUAUUACGGUAC | -3.8 ± 0.23 | -0.246 ± 0.12 |
| UUAUAGCAAUAUUACGCGAC | -2.5 ± 0.19 | -1.98 ± 0.2 |

| Sequence | self-splicing fitness (ln) (30 °C) | self-splicing fitness (ln) (37 °C) |
| --- | --- | --- |
| AUCCAGCAAUAUUACGGCCC | -0.946 ± 0.2 | 0.127 ± 0.21 |
| ACCUAGCAAUAUUACGUAUU | -1.84 ± 0.075 | -1.71 ± 0.11 |
| CUACAGCAAUAUUACGGGCG | -1.2 ± 0.065 | -0.108 ± 0.092 |
| UCACAGCAAUAUUACGCUGU | -2.88 ± 0.16 | -2.19 ± 0.24 |
| UCUCAGCAAUAUUACGGACU | -1.23 ± 0.062 | -0.345 ± 0.088 |
| ACCGAGCAAUAUUACGCUAG | -2.62 ± 0.22 | -1.44 ± 0.21 |
| ACUGAGCAAUAUUACGCCGG | -2.48 ± 0.3 | – |
| GCGUAGCAAUAUUACGGCCU | -0.557 ± 0.16 | -0.113 ± 0.25 |
| ACAGAGCAAUAUUACGUUAA | -3.15 ± 0.15 | -2.21 ± 0.21 |
| GGCAAGCAAUAUUACGAGCG | -0.697 ± 0.073 | 0.427 ± 0.097 |
| AUCAAGCAAUAUUACGUUAA | -3.14 ± 0.11 | -1.87 ± 0.093 |
| CAAUAGCAAUAUUACGCAGA | -3.78 ± 0.42 | -2.14 ± 0.18 |
| CGGUAGCAAUAUUACGCGCA | -1.16 ± 0.14 | -0.13 ± 0.15 |
| GCGAAGCAAUAUUACGUAAA | -1.85 ± 0.16 | -2.12 ± 0.23 |
| CUUGAGCAAUAUUACGCGGC | -2.63 ± 0.27 | -1.43 ± 0.43 |
| UAAAAGCAAUAUUACGAUGU | -2.44 ± 0.15 | -1.33 ± 0.19 |
| UGUGAGCAAUAUUACGUACG | -0.814 ± 0.1 | -0.164 ± 0.12 |
| UGAAAGCAAUAUUACGUGAC | -3.86 ± 0.29 | -2.01 ± 0.17 |
| UGUUAGCAAUAUUACGUCAA | -1.27 ± 0.12 | -1.2 ± 0.11 |
| AUGGAGCAAUAUUACGCAUC | -3.74 ± 0.14 | -3.29 ± 0.26 |
| UGAGAGCAAUAUUACGAGAC | -4.44 ± 0.46 | -2.59 ± 0.29 |
| GAGCAGCAAUAUUACGACUA | -0.925 ± 0.097 | 0.275 ± 0.11 |
| UAACAGCAAUAUUACGUUGG | -1.67 ± 0.083 | -0.828 ± 0.096 |
| UACCAGCAAUAUUACGACCG | -0.151 ± 0.067 | 0.099 ± 0.095 |
| GCAGAGCAAUAUUACGAACC | -1.87 ± 0.32 | -1.24 ± 0.33 |

| Sequence | self-splicing fitness (ln) (30 °C) | self-splicing fitness (ln) (37 °C) |
| --- | --- | --- |
| AGGUAGCAAUAUUACGUUAA | -2.881 ± 0.025 | -1.91 ± 0.037 |
| UAUAAGCAAUAUUACGCCGU | -1.41 ± 0.49 | – |
| GUACAGCAAUAUUACGAUCC | -0.427 ± 0.14 | 0.81 ± 0.18 |
| GGACAGCAAUAUUACGGAGA | -2.98 ± 0.15 | -2.61 ± 0.2 |
| UGCUAGCAAUAUUACGACAC | -3.83 ± 0.22 | -2.11 ± 0.16 |
| AAAUAGCAAUAUUACGCAUA | -1.7 ± 0.11 | -0.726 ± 0.11 |
| UUAAAGCAAUAUUACGUGCA | -0.0172 ± 0.1 | 0.542 ± 0.13 |
| AAAAAGCAAUAUUACGUCAC | -4.29 ± 0.26 | -1.27 ± 0.16 |
| UGCAAGCAAUAUUACGGCCU | -0.521 ± 0.059 | -0.286 ± 0.079 |
| GUGUAGCAAUAUUACGCCGA | – | -2.39 ± 0.42 |
| CAUCAGCAAUAUUACGGGUC | -2.63 ± 0.11 | -0.644 ± 0.1 |
| AAUAAGCAAUAUUACGGCAG | -0.454 ± 0.11 | -0.547 ± 0.16 |
| CCUCAGCAAUAUUACGACCA | -2.93 ± 0.34 | -1.99 ± 0.46 |
| AGGGAGCAAUAUUACGUACC | -2.86 ± 0.33 | -1.52 ± 0.29 |
| AAUUAGCAAUAUUACGGGGA | -2.98 ± 0.27 | -2.07 ± 0.26 |
| UUCAAGCAAUAUUACGUACG | -1.19 ± 0.13 | -0.699 ± 0.21 |
| UUGAAGCAAUAUUACGACCG | -0.105 ± 0.28 | 0.113 ± 0.28 |
| GUGUAGCAAUAUUACGUGGA | -3.41 ± 0.3 | -2.04 ± 0.23 |
| GAACAGCAAUAUUACGCCGA | -0.857 ± 0.12 | -0.581 ± 0.1 |
| CGGAAGCAAUAUUACGUUCA | -0.293 ± 0.13 | 0.673 ± 0.16 |
| CUUAAGCAAUAUUACGAUCA | -2.93 ± 0.26 | -3.2 ± 0.33 |
| AUGCAGCAAUAUUACGGGCU | -2.25 ± 0.078 | -1.07 ± 0.1 |
| UUCCAGCAAUAUUACGCGAC | -3.35 ± 0.24 | -0.902 ± 0.19 |
| GACCAGCAAUAUUACGAGGC | -3.02 ± 0.13 | -0.778 ± 0.091 |
| CAGCAGCAAUAUUACGAUUA | -1.77 ± 0.1 | -1 ± 0.11 |

| Sequence | self-splicing fitness (ln) (30 °C) | self-splicing fitness (ln) (37 °C) |
| --- | --- | --- |
| UGAUAGCAAUAUUACGCGAG | -1.66 ± 0.17 | -0.803 ± 0.13 |
| UAGUAGCAAUAUUACGUUCC | -4.21 ± 0.35 | -0.984 ± 0.19 |
| ACCAAGCAAUAUUACGGCCG | -0.944 ± 0.086 | -0.259 ± 0.11 |
| CUGAAGCAAUAUUACGAUGC | -3.46 ± 0.21 | -2.86 ± 0.33 |
| GAUGAGCAAUAUUACGCUUC | -4.04 ± 0.43 | – |
| CCGCAGCAAUAUUACGGGUC | -3.86 ± 0.18 | -2.69 ± 0.19 |
| CAGUAGCAAUAUUACGUCAC | -2 ± 0.25 | – |
| AACAAGCAAUAUUACGUCUA | -0.68 ± 0.053 | 0.247 ± 0.063 |
| AUCAAGCAAUAUUACGUGGG | -3.29 ± 0.14 | -2.04 ± 0.11 |
| UACGAGCAAUAUUACGUGGA | -3.55 ± 0.23 | -1.98 ± 0.19 |
| CUUCAGCAAUAUUACGUGGG | -3.96 ± 0.16 | -2.38 ± 0.19 |
| AUAAAGCAAUAUUACGGCAG | -0.699 ± 0.092 | -0.0772 ± 0.13 |
| GGUCAGCAAUAUUACGGUAC | 0.214 ± 0.15 | 0.298 ± 0.17 |
| GAAGAGCAAUAUUACGGACG | -2.59 ± 0.27 | – |
| UGUGAGCAAUAUUACGAAAG | -2.98 ± 0.18 | -2.69 ± 0.27 |
| CGUUAGCAAUAUUACGGCUC | -1.75 ± 0.33 | 0.277 ± 0.22 |
| UACUAGCAAUAUUACGGUCG | -0.0757 ± 0.12 | 0.338 ± 0.16 |
| UUAGAGCAAUAUUACGCACC | -3.79 ± 0.33 | -2.04 ± 0.4 |
| ACUAAGCAAUAUUACGUAAC | -4.39 ± 0.26 | -2.48 ± 0.24 |
| AAAUAGCAAUAUUACGGAGC | -3.73 ± 0.3 | -2.26 ± 0.17 |
| GCUCAGCAAUAUUACGACUU | 0.064 ± 0.085 | -0.0421 ± 0.078 |
| ACGCAGCAAUAUUACGCCGC | -3.68 ± 0.29 | -2.42 ± 0.25 |
